Reference: patent publication US6355619B1, “Peptide tumor cell growth inhibitors” (Board of Regents, The University of Texas System, priority 1996, dated 2002)
“And” between values parts separate entries of the source, which are not always exact repeats. Identical values can stand only once. Like-named read-outs stand apart in the source and are kept apart here.

Experiments:
[1] = molecular target: IL-8 receptors on human neutrophils (human); assay: inhibition of 125I-IL-8 binding to human neutrophils, method of Example I; D-amino acid heptamer series
[2] = molecular target: IL-8 receptors on human neutrophils (human); assay: inhibition of 125I-IL-8 binding to human neutrophils, peptide 10 µM
[3] = molecular target: IL-8 receptors on human neutrophils (human); assay: inhibition of 125I-IL-8 binding to human neutrophils
[4] = tested on: MGSA/GROα receptors on Hs 294T melanoma cells; assay: Binding of 125I-MGSA/GROα to Hs 294T melanoma cells; set-up: species or system human
Procedure: (§1) FIG. 11A. The binding of ^125I-labeled MGSA/GROα to melanoma cell lines, Hs 294T and RPMI-7951. The melanoma cells, 1×10^5, were incubated with 1 nM ^125I-MGSA/GROα in the presence of various concentrations of unlabeled MGSA/GROα. Binding inhibition curve with Hs 294T (closed circles) and RPMI-7951 (open circles). The lines shown in the graph are the best fit curves calculated using the London II computer program.
(§2) FIG. 13. The effect of Antileukinate on the binding of radiolabeled MGSA/GROα to the melanoma cell lines. The melanoma cells, Hs 294T (closed circles) and RPMI-7951 (open circles), were incubated with 1 nM ^125I-MGSA/GROα in the presence of different concentrations of Antileukinate. The lines shown in the graph are the best fit curves calculated using the London II computer program.
(§3) Recombinant human MGSA/GROα and IL-8 were purchased form Pepro Tech Inc. (Rocky Hill, N.J.) and radioactively labeled using ^125I-labeled Bolton-Hunter reagent (DuPont-NEN, Wilmington, Del.) (Bolton and Hunter, 1973). The labeled proteins were isolated using Sephadex G-25 column (Column PD-10, Pharmacia) pre-equilibrated with PBS containing 0.1% gelatin and stored at −70° C. after the addition of 1% bovine serum albumin.
(§4) Binding studies with melanoma cell lines were performed by the method of Horuk and colleagues (Horuk et al., 1993). Briefly, the cells (1×10^5 cells/well) in 24-well plates were washed two times with Hank's Balanced Salt Solution and incubated with ^125I-labeled MGSA/GROα or IL-8 in the buffer containing 1% bovine serum albumin at 4° C. for 3 hr. The incubation was terminated by vacuum aspiration of the supernatant. The cells were washed three times in binding buffer, solubilized by the addition of 200 μl of 1% SDS, and transferred to vials for counting. The non-specific binding was estimated by measuring the binding in the presence of 100-fold excess of non-labeled ligand. The binding parameters were calculated using the Lundon II computer program (Lundon Software Inc., Chagrin Falls, Ohio).

[5] = tested on: MGSA/GROα receptors on RPMI-7951 melanoma cells; assay: Binding of 125I-MGSA/GROα to RPMI-7951 melanoma cells; settings: RPMI-7951
Procedure: as §1, §2, §3, §4

[6] = molecular target: Receptor 1 (Table 2; class of IL-8 receptors on human neutrophils, two-site model, Lundon I) (human); assay: saturation binding of 125I-IL-8 to human neutrophils, Lundon I, two-site model, in presence of 10 µM Ac-RRWWCR-NH2
[7] = molecular target: Receptor 2 (Table 2; class of IL-8 receptors on human neutrophils, two-site model, Lundon I) (human); assay: as above
[8] = molecular target: Receptor 2 (Table 3; class of IL-8 receptors on human neutrophils, two-site model, Lundon II) (human); assay: displacement of 1 nM 125I-IL-8 by unlabeled IL-8 on human neutrophils, Lundon II two-site model, IL-8 alone
[9] = molecular target: Receptor 1 (Table 3; class of IL-8 receptors on human neutrophils, two-site model, Lundon II) (human); assay: as above
[10] = molecular target: Receptor 2 (Table 3; class of IL-8 receptors on human neutrophils, two-site model, Lundon II) (human); assay: displacement of 1 nM 125I-IL-8 by unlabeled IL-8 on human neutrophils, Lundon II two-site model, +10 µM Ac-RRWWCR
[11] = molecular target: Receptor 1 (Table 3; class of IL-8 receptors on human neutrophils, two-site model, Lundon II) (human); assay: as above
[12] = molecular target: Receptor 1 (Table 2; class of IL-8 receptors on human neutrophils, two-site model, Lundon I) (human); assay: saturation binding of 125I-IL-8 to human neutrophils, Lundon I, two-site model, in presence of 40 µM Ac-RRWWCR-NH2
[13] = molecular target: Receptor 2 (Table 2; class of IL-8 receptors on human neutrophils, two-site model, Lundon I) (human); assay: as above
[14] = molecular target: IL-8 receptors on human neutrophils (human); assay: saturation binding of 125I-IL-8 to human neutrophils, Lundon I, one-site model, no peptide
[15] = molecular target: Receptor 1 (Table 2; class of IL-8 receptors on human neutrophils, two-site model, Lundon I) (human); assay: saturation binding of 125I-IL-8 to human neutrophils, Lundon I, two-site model, in presence of 20 µM Ac-RRWWCR-NH2
[16] = molecular target: Receptor 2 (Table 2; class of IL-8 receptors on human neutrophils, two-site model, Lundon I) (human); assay: as above
[17] = molecular target: IL-8 receptors on human neutrophils (human); assay: inhibition of 125I-IL-8 binding to human neutrophils, method of Example I; reference row of the heptamer table
[18] = molecular target: IL-8 receptors on human neutrophils (human); assay: inhibition of 125I-IL-8 (10^-12 M) binding to human neutrophils, peptide 100 µM
[19] = molecular target: MGSA/GROα receptors on RPMI-7951 melanoma cells; assay: inhibition of 1 nM 125I-MGSA/GROα binding to RPMI-7951 cells
[20] = molecular target: MGSA/GROα receptors on Hs 294T melanoma cells; assay: cell-based or functional assay
[21] = molecular target: MGSA/GROα receptors on RPMI-7951 melanoma cells; assay: cell-based or functional assay
[22] = molecular target: IL-8 receptors on human neutrophils (human); assay: cell-based or functional assay
[23] = molecular target: IL-8 receptors on human neutrophils (human); assay: inhibition of 125I-IL-8 binding to human neutrophils, assuming purely competitive single site model
[24] = molecular target: MGSA/GROα receptors on Hs 294T melanoma cells; assay: inhibition of 1 nM 125I-MGSA/GROα binding to Hs 294T cells
[25] = molecular target: IL-8 receptors on human neutrophils (human); assay: inhibition of IL-8 binding to human neutrophils
[26] = molecular target: IL-8 receptors on human neutrophils (human); assay: inhibition of 125I-IL-8 binding to human neutrophils; peptide concentration not given
[27] = molecular target: IL-8 receptors on human neutrophils (human); assay: inhibition of binding of 1 nM IL-8 to human neutrophils, 90 min on ice (FIG. 10)
[28] = molecular target: IL-8 receptors on human neutrophils (human); assay: inhibition of 1 nM 125I-IL-8 binding to human neutrophils, 90 min 4 °C, average of replicates
[29] = tested on: IL-8 receptors on neutrophils; assay: Inhibition of 125I-labeled IL-8 binding to human neutrophils
Procedure: Therefore, in pursuing this aim, the present inventors assayed various other peptide compositions for IL-8 inhibitory activity by screening a library of 400 groups of hexapeptides. In these screening assays, ^125I-labeled interleukin-8 (10^−12 M) was mixed with 100 μM peptide, then added to neutrophils and incubated at 4° C. for 90 min. The bound radioactivity was separated from unbound by centrifugation through a dense cushion of a mixture of paraffin and silicon oils and the ^125I bound to neutrophils was counted in a gamma radiation spectrometer, allowing the results to be expressed as the percent of IL-8 binding which was inhibited.
The use of human subjects for acquisition of neutrophils was approved by the Institutional Review Board for human experimentation. For the preparation of neutrophils, human blood was anticoagulated with heparin for enzyme release studies and with 0.33% sodium citrate for other studies. For chemotactic and enzyme release studies neutrophils were separated by dextran sedimentation and erythrocyte lysis by the method of Boyum (Kohler and Milstein, 1975). For binding studies and cytotoxic studies, the neutrophils were further purified in gradients of Percoll (Pharmacia Fine Chemicals, Piscataway, N.J.) to a purity of 90-93% (Kohler and Milstein, 1975).
Recombinant human IL-8 (72 amino acids; Pepro Tech Inc., Rocky Hill, N.J.) was radioactively labeled with ^125I by the chloramine T method of Hunter and Greenwood (Hunter and Greenwood, 1962). Binding studies were performed according to Besemer et al. (1989), as follows: Neutrophils in phosphate buffered saline pH 7.4 (PBS) containing 0.1% bovine serum albumin (BSA) were incubated with labeled ligand in the presence or absence of the peptide being tested for 90 min at 4° C. to reach equilibrium and then centrifuged at 12,000×g for 3 min in Beckman B microfuge (Beckman Instruments, Fullerton, Calif.), through a cushion consisting of a mixture of paraffin oil Fisher Scientific, Fair Lawn, N.J.) and silicon oil (Serva Co., N.Y., N.Y.). The pellet and supernatant were then counted in a gamma radiation spectrometer. The non-specific binding was estimated to measure the binding in the presence of 100-fold excess of non-labeled ligand. The binding constants were calculated using the computer programs Lundon I and Lundon II.
In these studies, a screening for inhibition was carried out at 100 μM concentration of the peptide being tested, with a 10^−12 M concentration of IL-8. In the first series of studies, twenty peptides were synthesized with the carboxyl-terminal residue of RRWWCX (SEQ ID NO:23) being changed to each of the standard protein amino acids in turn.

RPMI-7951 melanoma cells = assay: Binding of 125I-IL-8 to RPMI-7951 melanoma cells
Procedure: (§5) FIG. 12. The specificity of the receptor binding. The melanoma cells, Hs 294T (closed symbols) and RPMI-7951 (open symbols), were incubated with indicated concentrations of radiolabeled MGSA/GROα (circles) or IL-8 (triangles). The non-specific binding was estimated by the binding in the presence of 100 fold excess of unlabeled material. Specific binding which is calculated by subtracting non-specific binding from total binding is shown in this figure.
as §4

Hs 294T melanoma cells = assay: Binding of 125I-IL-8 to Hs 294T melanoma cells; set-up: species or system human
Procedure: as §5, §4

[30] = molecular target: MGSA/GROα receptors on Hs 294T melanoma cells; assay: 1 nM 125I-MGSA/GROα displaced by unlabeled MGSA/GROα on Hs 294T cells, Lundon II
[31] = molecular target: MGSA/GROα receptors on RPMI-7951 melanoma cells; assay: 1 nM 125I-MGSA/GROα displaced by unlabeled MGSA/GROα on RPMI-7951 cells, Lundon II
[32] = IL-8 alone, binding inhibition curves, Lundon II

Sequence of Recombinant human IL-8 (72 amino acids) (P10145 28-99 limits assumed): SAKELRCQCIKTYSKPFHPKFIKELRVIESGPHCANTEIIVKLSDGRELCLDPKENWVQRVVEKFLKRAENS
Sequence of Recombinant human MGSA/GROα (P09341 35-107): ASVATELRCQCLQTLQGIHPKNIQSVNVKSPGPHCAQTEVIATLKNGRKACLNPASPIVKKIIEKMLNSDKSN

For Ac-rrwwcrc-NH2 (peptide), the % INHIB. [1] was 108%, the % of IL-8 binding prevented [2] was 80% and the fold potency against Ac-rrwwcr-NH2 (SEQ ID NO:1) [3] was 4 fold.
With “MGSA/GROα: Recombinant human MGSA/GROα (Pepro Tech Inc.), 73 amino acid α-chemokine” the Kd [4] was about 6 nM, the “maximal binding (Bmax) of MGSA/GROα” value [4] was 11 fmole/10^5 cells and the Kd [5] was about 3 nM. The “maximal binding (Bmax) of MGSA/GROα” value [5] was 15 fmole/10^5 cells.
“Recombinant human IL-8 (72 amino acids) (from UniProt P10145 28-99) (ligand)” showed a Bmax (fmole/10^6 cells) [6] of 91.9, a Kd [6] of 68 nM and a Bmax (fmole/10^6 cells) [7] of 90.9. The Bmax (fmole/10^6 cells) [8] was 68.8, the Kd [8] was 0.67 nM and the Bmax (fmole/10^6 cells) [9] was 38.8. For the same substance, the Kd [9] was 0.03 nM, the Bmax (fmole/10^6 cells) [10] was 75.6 and the Kd [10] was 0.76 nM. For the same substance, the Bmax (fmole/10^6 cells) [11] was 11.2, the Kd [11] was 1.23 nM and the Bmax (fmole/10^6 cells) [12] was 82. The Kd [12] was 13 nM, the Bmax (fmole/10^6 cells) [13] was 44.2 and the Kd [13] was 1.3 nM. The Bmax (fmole/10^6 cells) [14] was 174, the Kd [14] was 1.3 nM and the Bmax (fmole/10^6 cells) [15] was 90.9. It also gave a Kd [15] of 42.8 nM, a Bmax (fmole/10^6 cells) [16] of 76.2 and a Kd [16] of 0.8 nM.
Ac-RRWWCR-NH2 (peptide) showed a % INHIB. [17] of 112%, a % INHIB. [18] of 112% and a % inhibition [2] of 20%. The EC50 [19] was 1000 nM, the growth of Hs 294T cells (cell number after 72 hr) [20] was 18 µM and 10 µM and the growth of melanoma cells in culture [20] was 100 µM. The growth of RPMI-7951 melanoma cells (cell number after 72 hr) [21] was 31 µM, the growth of melanoma cells in culture [21] was 100 µM and the chemotaxis of neutrophils stimulated with 10 nM of IL-8 [22] was 50 µM. It also gave an enzyme release from neutrophils stimulated by IL-8 [22] of 0.8 µM, a β-glucuronidase release stimulated by 100 nM of IL-8 [22] of 2 µM and a Ki [23] of 10000 nM. For the same substance, the EC50 [24] was 1000 nM, the fold effectiveness against the non-acetylated peptide [25] was 2 fold and the % Binding Inhibition [26] was 98.6%. It also gave an EC50 [27] of 25000 nM and an EC50 [28] of 13700 nM.
For “IL-8: Recombinant human IL-8 (72 amino acids; Pepro Tech Inc.), radiolabeled ligand [reference compound]”, the “Bmax of IL-8, one-site model” value ([29]; 0 μM peptide, binding isotherms, Lundon I) was 174.2 ± 14.5 fmole/10^6 cells, the Kd ([29]; 0 μM peptide, binding isotherms, Lundon I, read-out: Kd of IL-8, one-site model) was 1.3 ± 0.2 nM and the “Receptor 1 Bmax of IL-8” value [29, 32] was 38.8 ± 0.6 fmole/10^6 cells. The “Receptor 2 Bmax of IL-8” value [29, 32] was 68.8 ± 0.7 fmole/10^6 cells, the Kd ([29]; IL-8 alone, binding inhibition curves, Lundon II, read-out: Receptor 1 Kd of IL-8) was 0.03 nM and the Kd ([29]; IL-8 alone, binding inhibition curves, Lundon II, read-out: Receptor 2 Kd of IL-8) was 0.67 ± 0.04 nM. The “specific binding of IL-8 to melanoma cells” value (RPMI-7951 melanoma cells) was “no specific binding” and the “specific binding of IL-8 to melanoma cells” value (Hs 294T melanoma cells) was “no specific binding”.
In the case of Ac-KELRCQ-NH2 (peptide), the % Binding Inhibition [26] is reported as -0.4%.
With “Recombinant human MGSA/GROα (from UniProt P09341 35-107) (ligand)” the Kd [30] was 6 nM, the maximal binding (Bmax) (fmole/10^5 cells) [30] was 11 and the Kd [31] was 3 nM. For the same substance, the maximal binding (Bmax) (fmole/10^5 cells) [31] was 15 and the reversal of the inhibition of Hs 294T growth by 50 µM Antileukinate [20] was 50 nM.
